The values that follow come from PMC7658359.

The target in experiment [1] is Arabidopsis histone H2A (HTA1)-H2B (HTB1) dimer, Q9LD28;Q9LQQ4. In words: ITC.
The target of experiment [2] is Arabidopsis histone H2A (HTA1)-H2B (HTB1) dimer (Arabidopsis thaliana) (UniProt Q9LD28). In words: ITC; MicroCal iTC200; OsChz1-C or its mutants injected into histone H2A-H2B or H2A.Z-H2B solutions; 19 injections of 2 μl. In general terms: Isothermal titration calorimetry measures the heat released or taken up as one component is titrated into another.
Sequence of Arabidopsis histone H2A (HTA1)-H2B (HTB1) dimer (Arabidopsis thaliana) (Q9LD28 whole entry, chain 1 of 2): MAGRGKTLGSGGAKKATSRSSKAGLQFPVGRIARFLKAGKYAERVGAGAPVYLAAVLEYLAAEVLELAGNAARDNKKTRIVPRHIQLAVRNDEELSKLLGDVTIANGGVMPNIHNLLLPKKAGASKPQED
Sequence of Arabidopsis histone H2A (HTA1)-H2B (HTB1) dimer (Arabidopsis thaliana) (Q9LQQ4 whole entry, chain 2 of 2, further chain): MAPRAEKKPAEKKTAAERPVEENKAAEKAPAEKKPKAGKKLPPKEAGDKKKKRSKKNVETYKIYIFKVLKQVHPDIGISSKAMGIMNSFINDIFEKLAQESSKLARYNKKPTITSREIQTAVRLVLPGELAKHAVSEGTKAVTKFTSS
Experiment [3] deals with Arabidopsis histone variant H2A.Z (HTA9)-H2B (HTB1) dimer (Arabidopsis thaliana) (UniProt Q9C944). The description is as above.

Turning to OsChz1-C (OsChz1 338–471), wild type 1M, in experiment [1], the Kd turned out to be 150 nM.

In turn, OsChz1-C (OsChz1 338–471), wild type 2M registered a Kd in experiment [1] of 259 nM.

For OsChz1-C (OsChz1 338–471), wild type 3M, the Kd in experiment [1] was 146 nM.

For the substance “OsChz1-C (OsChz1 338–471), wild type (domain or fragment)”, the Kd in experiment [2] was 9.8 nM; in experiment [3], 64.1 nM.

By Kd is commonly meant the constant that tells how readily two partners part at equilibrium.
